Here are results for 41 sequences from the nanobody polyreactivity screen of Harvey et al. (2022).

This data set in a line: yeast display, Sf9 membrane polyspecificity reagent, FACS + sequencing; frameworks hold sequencing errors. Put shortly: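 A nanobody's polyreactivity label depends on the gate it was sorted from. Yeast display cells were stained with 10% biotinylated, detergent-solubilized Sf9 membrane reagent for 1 hour at 4 °C, enriched on streptavidin microbeads and sorted by FACS. The low and high (top ~1%) gates were set on anti-HA fluorescence for expression and streptavidin fluorescence for reagent binding.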
Turning to “QVQLQESGGDLEQAGGSLRLSCTASGTISDVRVMGWSRQAPGKERELVATISYVTITYYADSVKGRFTISRDSEKHRVSADDEPETGRYRGVLFRYYWGLGTQVTVSS”, the “polyreactivity (PSR sort gate)” value is reported as “low polyreactivity”.
As to “QVQLQESGGGLEQAGGSLRLSCAASGYISDIGPMGWSRQAPGKEREFVATIVVGSTTNYADSVKGRFTISRDNAKNTVYLQPESGRFRGVLLRGWLLAVGKFTYWGQGTQETVSS”, the “polyreactivity (PSR sort gate)” value is recorded as “low polyreactivity”.
With “QVQLQESGGGLEQAGGSLRLSCAASGYISDIGTMGWYRQAPAKEREFVATIVVGSTTNYADSVKGRFTISRDNAKNTVYLQPESGRYRGVLLSGWLLAVGKFTYWGQGTQETVSS” the entry was “low polyreactivity”; with “QVQLQESGGGLLLAGGSLRLSCSASGNISVYGSMGWYRQAPGKEREFVATIDPGTNTNYADSVKDRFTISRDNAKNTVYLQMNSLKPEDTAVYYCAVEAGSDWPYRYWGQGTQVTVSS”, “low polyreactivity”.
With “QVQLQESGGGLMQAGGNLRLSCAASGYISTNDDMDWYRQAPGKERELVARIDDGAITNYADSVKGRFTISRDNAKKTVYLQMNSLKPEDTAVYYFAVYSGDDYYHDYWGQGTQVTVSS” the entry was “low polyreactivity”; with “QVQLQESGGGLMQAGGSQRLSCAASGSISYYSDMGWYRQSPGKEREFVAGIGYGTTTNYADSVKGRFTTSRDNAKNTVYLQMISMKPEDTAVYYCAAYQGNGYEFYYWGQGTQVTVRS”, “low polyreactivity”; with “QVQLQESGGGLMQAGGSQRLSCAASGSITYYSDMGCYRQAPGKELEFVAAIGYGTTTNYADSVKGRFTTSRDNAKYTVYLQMISMKPEDTAVYYCAAYQGKGYEFYYWGQGTQVTVRS”, “low polyreactivity”.
As for “QVQLQESGGGLVKAGGSLRLSCAASGSIFYWPWMGWYRQAPGREREFVATITTGSNTYYADSMKGHLTISRDNARNTVYLQMNSLKPEDTAVYYCAVVGDGELEHRYWGQGTQVTVSS”, the entry is “high polyreactivity”; as for “QVQLQESGGGLVLAGGSLRLSCSASGNISVYGSMGWYRQAPGKEREFVATIDPGTNTNYADSVKDRFTISRDNAKNTVYLQMNSLKPEDTAVYYCAVEAGSDWLYRYWGQGTKVTVSS”, “low polyreactivity”.
As for “QVQLQESGGGLVNAGGSLRLSCAASGTISFINMMGWYRQAPGRERELVASINFGANTNYADSVKGRFTISRDNAKNTVYLQMNSLKPEDTAVYYCAVYDFDAYTLYYWGQGTLVTVSS”, the “polyreactivity (PSR sort gate)” value is recorded as “high polyreactivity”.
As for “QVQLQESGGGLVQACGSQRLSCAASGSISEGQDMGWYRRAPGKEREFVAGIAPGATTYYADSVKGRFTISRDNAKNTVYLQMNSLKPEDTAVYYCAARSVTETDHDYWGQVTQVTVSS”, the entry is “low polyreactivity”; as for “QVQLQESGGGLVQADGSLRLSCAASGSIFGYYYMGWYRQAPGKDRDLVATINICGITNYADSVNGRFTISRDNAKYTVYLQMNSLKPDDTAVYYCAADEFDQRDLGYWGQGTQVSVSS”, “low polyreactivity”; as for “QVQLQESGGGLVQAGGCLSCTASGTIFGQGDMGWYRQAPGKERELVATINVGASTYYADSVKGRFTISRDKAKNTVYLQKNSLKPDDTAVYYCAVFTDITTYFGYWGQGTQVTVSS”, “low polyreactivity”.
Regarding “QVQLQESGGGLVQAGGDLRLSCAASGNIFRDYIMGWNPQAPGKEREFVAGIDRGANTNYADSVKGRFTISRDNAKNTVYLQMNSLKPEDTAVYYCAVHTAIVPDFIYWGQGTQVTVSS”, the “polyreactivity (PSR sort gate)” value is “low polyreactivity”.
With “QVQLQESGGGLVQAGGILRRSCAACGNIFPSAVMGWYRQALGKEREFVATINSGSNTYYADSVKGRFTISRDNAKNTVYLQMNSLKLEDTAVYYCAAYFKLPAWHTYWGQGTQVTVSS” the entry was “low polyreactivity”; with “QVQLQESGGGLVQAGGSLCLSCAASGTIFFDGDMGWNRQAPGKEREFVAAINPGGSAYYADSVKGRLPLAAITHTVYMQMYSLKPEDTAVYYCEAILFDVYGYYYWGQGTNVTVSS”, “low polyreactivity”.
As for “QVQLQESGGGLVQAGGSLLICAASGTISWVDEMGWYRQAPGNERELVAGIAGGGNTNYADSVKGRYTISRDNAKNTVYLEMNSLDTAVYYCAVVGFGRGTHIYWGQGTQVTVSS”, the entry is “high polyreactivity”; as for “QVQLQESGGGLVQAGGSLLLSCAASGSSYDDTYMGWYRQAPGKERELVATIDSGSTTNYADSVKGRNTISRDNAKYTLYLQMNSLKPEDTAVYYCAAADSHIDYFDYWGQGTQVTVSS”, “low polyreactivity”; as for “QVQLQESGGGLVQAGGSLLSCAASGTISSYREMGWYRQAPGKELELVAGIGVGTITYYADSVKGRFTISRDNAKNTVYLQMNSLKPEDTAVYYCAAHIDGNDSHAYWGQGTQVTVSS”, “low polyreactivity”.
As for “QVQLQESGGGLVQAGGSLLSCAASGTISWVDEMGWYRQAPGNERELVAGIAGGGNTNYADSVKGRYTISRDNAKNTVYLQMNSLDTAVYYCAVVGFGRGTHIYWGQGTQVTVSS”, the entry is “high polyreactivity”; as for “QVQLQESGGGLVQAGGSLRLGCAASGNISDAGYMGWYRQAPGKEREFVAAIAAGSNTNYADSVKGRFTISRDNAKNTVYLQMNSLKPEDTAVFYCAVGSYARVQYEYWGQGTQVTVNS”, “low polyreactivity”.
For “QVQLQESGGGLVQAGGSLRLRCAASGYISAGRQMGWYRQGPGKEREFVATINGGATTNYADSVKGRFTISRDNAKNSVYLQMNSLKPEDTAVYYCAVRTYIYDIHRYWGQGTQVTVSS”, the “polyreactivity (PSR sort gate)” value is listed as “high polyreactivity”.
For the sequence “QVQLQESGGGLVQAGGSLRLSCAASCTISQEDWMGSYRQAPGKEREFVAAIGLGSNTNYADSLKGRFTISRDNAKNTVYLQMNSLKPEDTAVYYCAVSVWQYSDHVYRGQGTQVTVSS”, the “polyreactivity (PSR sort gate)” value is “low polyreactivity”.
As for “QVQLQESGGGLVQAGGSLRLSCAASCTISQEDWMGWYRQAPGKEREFVAAIGLGSNTNYAESLKGRFTISRDNAKKTVYLQLHSLKPEDTAVYYCAVSVWQYSDHVYGGQGTQVTVSS”, the entry is “low polyreactivity”; as for “QVQLQESGGGLVQAGGSLRLSCAASGNIFDADIMGWYRQAPGKERELVASITDGGSTNYADSVKGRFTISRDNAKNTLYLQLISLYPDDTGVYYCAAIAYPDIPTYFDYDSDYFYWGQGTQVTVSS”, “high polyreactivity”.
As for “QVQLQESGGGLVQAGGSLRLSCAASGNIFPTVSMGWYRQAPGKEREFVVTIDPGSNTYYADSAKGRFTISRDNAKNTVYLQMNSPKPEDTAVYYCAVVFADWATYGYWGQGTQVTVSS”, the entry is “high polyreactivity”; as for “QVQLQESGGGLVQAGGSLRLSCAASGNISSYYRMGSYRQAPGKEREFVATIAVGGTTNYADSVKGRFTISRDNAKNTVYLQMNSLKPEDTAVCFCAANSTQYTWFDYWGQGTQVPVSS”, “low polyreactivity”; as for “QVQLQESGGGLVQAGGSLRLSCAASGNISVTGFMGWYRQAPGKERELVASIGIGGTTYYADSVKGRFSISRDNAKNTVYLQMNSLKPEDTAVYYCAARVIYYYGSGPYDYWGQGTQVTVSS”, “low polyreactivity”.
As for “QVQLQESGGGLVQAGGSLRLSCAASGNIVDADIMGWYRQAPGKEREIVASITDGGSTNYADSLKGRFTISRDHAKNTVYQQMNRLLPEDTAVYYCAAIAYPDIPTYFDYDSDYFYWGQGTQETVSS”, the entry is “high polyreactivity”.
On to “QVQLQESGGGLVQAGGSLRLSCAASGNIYDADIMGWYRQAPGKERELVTSITDGGSTNYADSVKGRFTISRDNAKNTVYLQMNSLKPEDTAVYYCAAIAYPDIPTSFDYNTDYSYWGQGTQVTVSS”, for which the “polyreactivity (PSR sort gate)” value is “low polyreactivity”.
With “QVQLQESGGGLVQAGGSLRLSCAASGSIFKVVDMGLYRQAPAKEREFVATIGEGGNTYYADSVKGRFTISRDNAKNTVYLQMNSLKPEDTAVYYCNVDIGVYAYESDYWGQGTQVTVSS” the entry was “low polyreactivity”.
For “QVQLQESGGGLVQAGGSLRLSCAASGSIFQLHIMCWYRQAPGKERESVAAISYGTSTYYADSVKGRFTICRDNAKNTVYLQMNSPKTDDTAVYYCAALFLVSKHHHYWGEGTQVTVSS”, the “polyreactivity (PSR sort gate)” value is “low polyreactivity”.
As for “QVQLQESGGGLVQAGGSLRLSCAASGSIFYEFYMGWYRQAPGKERELVAAIANGASTYYADSVKGRFTISRDNSKNTVYLQMSSLKPEDTAVYYCAVNTTSDIDYIYWGQGTQVNVSS”, the entry is “low polyreactivity”; as for “QVQLQESGGGLVQAGGSLRLSCAASGSITHYIFMGWYRQAPGKEREFVAGIGYGGTTNYADSVKGRFTISRDNAINTVYLQMNSLKPEDTAMYYCAAREATEFYLYYWGQGTQVTVSS”, “low polyreactivity”.
With “QVQLQESGGGLVQAGGSLRLSCAASGSIYVSVTMGWYRQAPGKERELVASIGRGSTTNHADSVKGRFTISRDNAKNIVYLLMNSLKPEDTAVYYCAALESYGKYHGYWGEGTQVTVSS” the entry was “low polyreactivity”; with “QVQLQESGGGLVQAGGSLRLSCAASGSSFEELDMGWYRQAPGKEREFVAAIGTGSTTYYADSVKGRLTISRDNAKNTVYLQMNSLKPEDTAVYYCAVDTWARAYLGYWGQGTQVTVSS”, “high polyreactivity”; with “QVQLQESGGGLVQAGGSLRLSCAASGTIFRFRYMGWHRQAPGKERELVAGINGGTTTYYADSVIGRFTISRDNAKKSVYLQMNSLKPDDTAVYNCAAGASRLTYYDYWGQGTQVTVSS”, “low polyreactivity”.
In the case of “QVQLQESGGGLVQAGGSLRLSCAASGTISDSGLMGWYRQAPGKERELVAGISSGGITNYADSVKGRFTISRDIAKNTVYLQMNSLKPEDTAVYWGQGTQVTVSS”, the “polyreactivity (PSR sort gate)” value is given as “low polyreactivity”.
As for “QVQLQESGGGLVQAGGSLRLSCAASGTISDSGLMGWYRQAPGKERELVAGISSGGITNYADSVKGRFTISRDNAKKTVYLQMNSLKPEDTAVYWGQGTQLTVSS”, the entry is “low polyreactivity”; as for “QVQLQESGGGLVQAGGSLRLSCAASGTISQEDWMGWYRQAPGKEREFVAAIGLGSNTNYADSLKGRFTISRDNAKNTVYLQMNSLKPEDTAVYYCAVSVWQYSDNVYRGQGTQVTVSS”, “low polyreactivity”.
On to “QVQLQESGGGLVQAGGSLRLSCAASGTISQEDWMGWYRQAPGKEREFVAPIGLGSNTNSADSLKGRFTISRDNAKNTVYLHMNSLKPEDTAVYYCAVCVWQYSDHVYRGQGTQVTVSS”, for which the “polyreactivity (PSR sort gate)” value is “low polyreactivity”.
